Measured values taken from US20250002574A1 (SUNSHINE LAKE PHARMA, published 2025).

T1: IL-11 (UniProt P20809 22-199, limits assumed)
T1 construct: also called IL-11 protein; IL-11 antigen
T1 sequence (looked up): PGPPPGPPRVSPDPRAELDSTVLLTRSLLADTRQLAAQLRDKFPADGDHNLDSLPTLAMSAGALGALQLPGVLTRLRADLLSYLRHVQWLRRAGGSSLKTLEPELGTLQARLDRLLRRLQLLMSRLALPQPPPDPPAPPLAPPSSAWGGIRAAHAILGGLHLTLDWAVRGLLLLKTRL

T2: IL-11 stably expressed on CHO cells (membrane-IL-11 CHO) (UniProt P20809 22-199)
T2 construct: whole, on cells
T2 sequence (looked up): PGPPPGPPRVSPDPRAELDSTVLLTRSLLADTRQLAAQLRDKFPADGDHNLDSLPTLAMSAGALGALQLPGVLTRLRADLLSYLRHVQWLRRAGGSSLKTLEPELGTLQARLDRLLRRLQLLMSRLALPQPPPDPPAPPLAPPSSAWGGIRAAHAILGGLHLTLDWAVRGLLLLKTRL

T3: recombinant human protein antigen hu-IL-11-His tag (human, UniProt P20809 22-199)
T3 construct: also called IL-11-His protein; not shown: His tag
T3 sequence (looked up): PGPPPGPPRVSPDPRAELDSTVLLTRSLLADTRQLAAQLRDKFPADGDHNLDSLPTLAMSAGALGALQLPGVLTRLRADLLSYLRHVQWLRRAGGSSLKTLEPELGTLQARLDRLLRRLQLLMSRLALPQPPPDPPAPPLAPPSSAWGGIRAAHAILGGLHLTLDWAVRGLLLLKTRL


Columns and labels:
[1] = target: T1, IL-11; test: flow, IL-11 + antibody on IL-11R cells; lower = more blocking
[2] = target: T1, IL-11; test: ELISA on IL-11, monoclonal hybridoma antibody
[3] = target: T1, IL-11; test: BLI (Fortebio), antibody on AHC sensor, IL-11 as analyte
Experimental: (§1) The determination method consisted of the following steps: the humanized antibody was captured by an AHC sensor. […] Finally, the sensor was regenerated with 10 mM glycine (pH 1.7) buffer.

[4] = target: T2, IL-11 stably expressed on CHO cells …; test: flow cytometry on membrane-IL-11 CHO cells, detection with goat-anti-Fc-FITC
Experimental: The cells were washed 3 times with PBS, and then the flow secondary antibody Goat-anti-Fc-FITC (Abcam, ab98529) was added and detected by flow cytometry. The results were plotted as S-curves in FIG. 11.

[5] = target: T1, IL-11; test: BLI (Fortebio), antibody on AHC sensor, IL-11 3.91-125 nM
Experimental: as §1

[6] = target: T3, recombinant human protein antigen …; test: flow cytometry competition: IL-11-His plus antibody on membrane-IL-11R CHO cells
Experimental: The inventors constructed a cell line (membrane-IL-11R CHO) that stably expressing IL-11R. […] Then 1.5*10\hat{ }5 membrane-IL-11R CHO cells (100 μL/well) were added and incubated for 1 h at room temperature. […] Then, the plate was incubated at 4° C. for 1 h, centrifuged at 1500 rpm for 5 min, washed three times with PBS, and resuspended cells in 180 μl PBS, and detected by flow cytometry.

[7] = target: T1, IL-11; test: SPR Biacore T200, antibody captured, IL-11 6.25-400 nM
Experimental: The measure method included the following steps of capturing the full-length humanized antibody at a flow rate of 10 μL/min. […] The binding time was 180 s, and the dissociation time was 600 s. Finally, the chip was regenerated with 10 mM glycine buffer.

FITC Mean [1] | OD450 [2] | fold increase of affinity against the humanized antibody VH1+VL3 [3] | EC50 (read off the curve) [4] | Kd [5] | koff [5] | kon [5] | EC50 [6] | Kd [7] | koff [7] | kon [7] | Binder
 |  |  |  |  |  |  | 11.6 µg/mL | 12 nM | 0.000597 s⁻¹ | 49800 M⁻¹ s⁻¹ | VH1+VL2 full-length humanized antibody (antibody, human IgG1, kappa, V domains shown, IgG form, IgG1 Fc) VH: QVQLVQSGAEVKKPGASVKVSCKASDYTFTNYWLGWVRQAPGQGLEWMGHIYPGGGYTNYNEKFKGRVTMTRDTSTSTVYMELSSLRSEDTAVYYCARVRSGNDALDFWGQGTLVTVSS VL: EIVLTQSPATLSLSPGERATLSCRASESVDEYGISFMNWYQQKPGQAPRLLIYSASNQGSGIPARFSGSGSGTDFTLTISSLEPEDFAVYFCQQSKEVPWTFGGGTKLEIKR
 |  | 10 fold | ~2 µg/mL | 0.262 nM | 0.000152 s⁻¹ | 580000 M⁻¹ s⁻¹ |  |  |  |  | MIL-11 mab-03 (antibody, IgG1, V domains shown, also called 1F12 full-length antibody) VH: QVQLVQSGAEVKKPGASVKVSCKASDYTFTNYWLGWVRQAPGQGLEWMGHIYPGGGYTNYNEKFKGRVTMTRDTSTSTVYMELSSLRSEDTAVYYCARVSSGNDALDFWGQGTLVTVSS VL: EIVLTQSPATLSLSPGERATLSCRASESVDEYGISFMNWFQQKPGQAPRLLIYSASNQASGIPARFSGSGSGTDFTLTISSLEPEDFAVYFCQQSKELPWTFGGGTKLEIK
 |  |  | ~3 µg/mL | 1.17 nM | 0.000584 s⁻¹ | 501000 M⁻¹ s⁻¹ |  |  |  |  | MIL-11 mab-01 (antibody, IgG1, V domains shown, also called 1E12 full-length antibody) VH: QVQLVQSGAEVKKPGASVKVSCKASDYTFTNYWLGWVRQAPGQGLEWMGHIYPGGGYTNYNEKFKGRVTMTRDTSTSTVYMELSSLRSEDTAVYYCARVSSGNDALDLWGQGTLVTVSS VL: EIVLTQSPATLSLSPGERATLSCRASESVDEYGISFMNWFQQKPGQAPRLLIYSGSNEGSGIPARFSGSGSGTDFTLTISSLEPEDFAVYFCNQSKEVPWTFGGGTKLEIK
 |  |  |  |  |  |  | 12.5 µg/mL | 10 nM | 0.000545 s⁻¹ | 54300 M⁻¹ s⁻¹ | VH1+VL4 full-length humanized antibody (antibody, human IgG1, kappa, V domains shown, IgG form, IgG1 Fc) VH: QVQLVQSGAEVKKPGASVKVSCKASDYTFTNYWLGWVRQAPGQGLEWMGHIYPGGGYTNYNEKFKGRVTMTRDTSTSTVYMELSSLRSEDTAVYYCARVRSGNDALDFWGQGTLVTVSS VL: EIVLTQSPATLSLSPGERATLSCRASESVDEYGISFMNWFQQKPGQAPRLLIYSASNQGSGIPARFSGSGSGTDFTLTISSLEPEDFAMYFCQQSKEVPWTFGGGTKLEIKR
 |  |  |  |  |  |  | 7.54 µg/mL | 6.41 nM | 0.000433 s⁻¹ | 67600 M⁻¹ s⁻¹ | full-length chimeric antibody constructed by 5-20E11-5F2 (Example 15) (antibody, human IgG1, kappa, V domains shown, also called CPD-1; VH+VL) VH: QVQLQQSGAELVRPGTSAKISCKASDYTFTNYWLGWLKQRPGHGLEWIGHIYPGGGYTNYNEKFKGKATLTADTSSSTAYMQLSSLTSEDSAVYFCARVRSGNDALDFWGQGTSVTVSS VL: not shown

Continued, binder first:

Binder | FITC Mean [1] | OD450 [2] | fold increase of affinity against the humanized antibody VH1+VL3 [3] | EC50 (read off the curve) [4] | Kd [5] | koff [5] | kon [5] | EC50 [6] | Kd [7] | koff [7] | kon [7]
3-2B5-3D2 (antibody, human IgG1, kappa, V domains shown) VH: QVQLKQSGPGLVLPSQSLSITCTVSGFSLTSYGVHWFRQSPGTGLEWLGVIWSGGITDYNATFIPRLSISKDNSKSQVFFKMNSLQADDTAIYYCARNFDGYYYSIDYWGQGTSVTVSS VL: DIQMTQTTSSLSASLGDRVTISCRASQDISNSLNWYQQKPDGTVKLLIYYTSRLHSGVPSRFTGSGSGTDYSLTISNLEQEDIATYFCQQGNTLPLTFGAGTKLELKR | 15300 mean fluorescence | 1.61 OD450 |  |  |  |  |  |  |  |  | 
3-15D5-6A1 (antibody, human IgG1, kappa, V domains shown) VH: EVKLLESGGGLVQPGGSLKLSCAASGFDFRRYWMSWVRQAPGKGLEWIGQINPDSSMINYTPSLKDKFIISRDNAKNTLYLQMSEVRSEDTALYYCATYGHHATDSWGQGTSVTVSS VL: DIVLTQSPASLAVSLGQRATISCRASESVDSYGNSFMHWYQQKPGQPPKLLIYRASNLESGIPARFSGSGSRTDFTLTINPVEADDVATYYCQQSNEDPFTFGSGTKLEIKR | 13600 mean fluorescence | 1.51 OD450 |  |  |  |  |  |  |  |  | 
MIL-11 mab-02 (antibody, IgG1, V domains shown, also called 2E2 full-length antibody) VH: QVQLVQSGAEVKKPGASVKVSCKASDYTFTNYWLGWVRQAPGQGLEWMGHIYPGGGYTNYNEKFKGRVTMTRDTSTSTVYMELSSLRSEDTAVYYCARVSSGNDALDFWGQGTLVTVSS VL: EIVLTQSPATLSLSPGERATLSCRASESVDEYGISFMNWFQQKPGQAPRLLIYSASNQGSGIPARFSGSGSGTDFTLTISSLEPEDFAVYFCQQSKELPWTFGGGTKLEIK |  |  | 10 fold | ~2 µg/mL | 0.242 nM | 0.00013 s⁻¹ | 535000 M⁻¹ s⁻¹ |  |  |  | 
VH1+VL3 full-length humanized antibody (antibody, human IgG1, kappa, V domains shown, IgG form, IgG1 Fc; also called VH1+VL3 mAb; CPD-2) VH: QVQLVQSGAEVKKPGASVKVSCKASDYTFTNYWLGWVRQAPGQGLEWMGHIYPGGGYTNYNEKFKGRVTMTRDTSTSTVYMELSSLRSEDTAVYYCARVRSGNDALDFWGQGTLVTVSS VL: EIVLTQSPATLSLSPGERATLSCRASESVDEYGISFMNWFQQKPGQAPRLLIYSASNQGSGIPARFSGSGSGTDFTLTISSLEPEDFAVYFCQQSKEVPWTFGGGTKLEIKR |  |  |  | ~2 µg/mL | 2.84 nM | 0.000609 s⁻¹ | 214000 M⁻¹ s⁻¹ | 10.5 µg/mL | 9.03 nM | 0.000474 s⁻¹ | 52600 M⁻¹ s⁻¹
